The values that follow come from patent US20130115213A1.

As usually defined, the koff is the rate constant with which the complex falls apart. What is called pKd is the negative decadic logarithm of the Kd, by convention in mol/L. High values mean a small Kd, low ones a large Kd.

pKd: −log10 of the molar value.

Assay [1] concerns the target human CD3 (TCR/CD3 complex) on the cell surface (human) (UniProt P07766). In words: cell surface retention on CD3+ Jurkat cells at 37 C, flow cytometry, one-phase exponential decay fit. On the technique in general: In flow cytometry, cells or beads pass a laser one at a time.
The target is the same in assay [2]. In words: flow cytometry on CD3+ Jurkat cells, Lineweaver-Burk fit.
Assay [3] has the same target. In words: cell surface retention on CD3+ Jurkat cells at 37 C; ln2/koff.
The target is the same in assay [4]. As to the kind of experiment: cell-based or functional assay.
The target is the same in assay [5]. In words: cell surface retention on CD3+ Jurkat cells at 37 C; reference scFv10.

UniProt P07766, sequence (P07766 23-207, one chain of several): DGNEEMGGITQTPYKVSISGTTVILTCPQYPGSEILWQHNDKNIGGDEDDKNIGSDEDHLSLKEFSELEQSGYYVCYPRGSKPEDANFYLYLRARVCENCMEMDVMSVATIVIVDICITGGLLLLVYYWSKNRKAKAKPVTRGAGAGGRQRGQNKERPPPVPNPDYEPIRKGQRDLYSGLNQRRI

The substance “mAb OKT3 (Orthoclone OKT3, Cilag) (antibody)” showed a koff in assay [1] of 0.00447 s⁻¹. Also, the pKd in assay [2] is 8.69. The t1/2 in assay [3] worked out at 2.59 min. For the same substance, in assay [4], the CD3 modulation (fraction of TCR/CD3 complexes on the surface of T cells that is lost after antibody treatment), PBMC, 24 h is above 90%. The fold longer t1/2 against scFv10 in assay [5] amounted to 2.5 fold.
